Data reported in US20250172552A1 (ANN AND ROBERT H LURIE CHILDREN S HOSPITAL OF CHICAGO, published 2025).
Like-named read-outs stand apart in the source and are kept apart here.

B1: KD2-1D10 (antibody, V domains shown)
VH: EVQLVESGGGLIHPGGSLRLSCAASGFTFSSYWMHWVRQAPGKGLVWVSHIKSDGSNTIYADSVKGRFTISRDNAKNTLYLQMNSLRAEDTAVYYCGRGRSLTPRSAIDYWGQGTLVTV
VL: QSALTQPPSASGSPGQSVTITCTGTSSDVGGYNYVSWYQQHPGKAPKLMIYEVSKRPSGVPDRFSGSKSGNTASLTVSGLQAEDEADYHCSSFAGDNNSPVFGGGTKLTVL
B2: KD3-1C10 (antibody, V domains shown)
VH: EVQLVESGGGLVQPGGSLRLSCAASGFTFSNHWMHWVRQAPGKGLLWVSRIDTGGSTTNYADSVKGRFTISRDSAKNTVYLQMNSLRAEDTAVYYCARGGLFYYGMDVWGQGTTVTV
VL: EIVLTQSPGTLSLSPGERATLSCRASQTSSSTSLAWYQQKRGQAPRLLIYGASRRATGIPDRFSGSGSGTDFTLTISRLEPEDFAVYYCQQFSGSPAYTFGQGTKVEIK
B3: KD5-2D7 (antibody, V domains shown)
VH: EVQLVESGGGLVQPGGSLGLSCAASGFTFSNYWMHWVRQAPGKGLVWVSRINSDGSDTSYADSVKGRFTISRDNAENTLYLHMSSLRAEDTAVYYCARELGYGDYGMDVWGKGTTVTVS
VL: QSVLTQPPSASGTPGQRVTISCSGSSSNIGSHSVIWYQQLPGTAPKLLVYSDNQRPSGVPDRFSGSKSGTSASLAISGLQSEDEADYYCAAWDDSLNHLHVVFGGGTKLTVL
B4: KD7-2H5 (antibody, V domains shown)
VH: EVQLVESGGGLVQPGGSLRLSCAASGFTFSSYWMHWVRQAPGKGLVWVSRINSDGSSTSYADSVKGRFAISRDNAKNTLYLQMNSLRAEDTAVYYCARALGGWDIDYWGQGTLVTVS
VL: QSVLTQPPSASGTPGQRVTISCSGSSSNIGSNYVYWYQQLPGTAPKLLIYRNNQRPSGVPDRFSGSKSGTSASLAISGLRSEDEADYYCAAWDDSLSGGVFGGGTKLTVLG
B5: KD7-1B5 (antibody, V domains shown)
VH: VQLVESGGGVVQPGRSLRLSCEASGFTFRSRAMHWVRQAPGKGLGWVAVIWYDGSNKYYADSVKGRFTISRDNSRNTLYLQMNSLRAEDTAVYYCARDLGSGFSLDYWGQGTLVTVS
VL: QSVLTQPPSVSAAPGQKVTISCSGSSSNIGNNYVSWYQQLPGTAPKLLIYDNNKRPSGIPDRFSGSKSGTSATLGITGLQTGDEADYYCGTWDSSLSAEVFGGGTKLTVLG
B6: KD10-1G3 (antibody, V domains shown)
VH: EVQLVESGGGLVQPGGSLKLSCAASGFSFSGAAMHWVRQSSGRGLEWLGRIRSKTNDYATAYAESLHGRFTISRDDAKNTAYLQMNRLKSEDTAIYYCTTVLSKGDHAVWLGPWGPGTLVTV
VL: QPVLTQPPSSSASPGESARLTCTLPSDISVAASDIYWYQQKAGSPPNFLLYDPSDSHKGQDSGVPSRFSGSRDGSANSGFLLISGVQSEDEADYYCMVWPPNTVGVVFGGGTTLTV
B7: KD10-1A8 (antibody, V domains shown)
VH: EVQLVESGGGLVQPGGSLRLSCAASGFTFSSYWMEWVRQAPGKGLVWVSHISSDGSVTRYVDSVKGRFTISRDNAKNTLYLQMNSLRAEDTGVYYCAKDLHWNALDVWGQGTMVTVS
VL: DIVMTQTPLSLSVTPGQPASISCKSSQSLLHNDGKTFLHWYLQKPGQSPQLLIYEVSSRFSGVPDRFSGSGSGTDFTLKISRVEAEDVGVYYCMQGIHLPPTFGGGTKVEIKR
B8: KD11-2E4 (antibody, V domains shown)
VH: EVQLVESGGGVVQPGESLRLSCAASGVTFSSYWMHWVRQVPGKGLVWVARINIDGTSTTYADCVKGRFTISRDNAKNTLYLQMSSLRAEDTAVYYCATERGLLSGGRWHSSHFDYWGQGTLVTVS
VL: DIQMTQSPSTLSASVGDRVTITCRASQSISSWLAWYQQKPGKAPKVLIYKTSSLESGVPSRFSGSGSGTEFTLTISSLQPDDFATYYCQQYDSSSLTWTFGQGTKVEIK
B9: KD12-2A10 (antibody, V domains shown)
VH: EVQLVESGGGLVKPGGSLRLSCAASGFTFINAWMNWVRQAPGKGLEWVGLIKSKTDGGTIDYAAPVKGRFTISRDDSEKMLYLQMDSLKTEDTAVYYCTTMYGWKDARDYWGQGTLVTV
VL: EIVLTQSPGTLSLSPGERATLSCRASQSVSSNLAWYQQKPGQAPRVLIYGASSRATGIPDRFSGSRSGTDFTLTISRLEPEDFAVYYCQRYDNSPRTFGQGTKVEIK
B10: KD12-1G7 (antibody, V domains shown)
VH: EVQLVESGGGLVQPGGSLRLSCGASGFTVSGKYMTWARQAPEKGLEWVSAIYRGGGTYYADSVKGRFTISRDNSKNMLYLQMNSLRAEDTAVYYCGGSVMVSATDYWGQGTLVTV
VL: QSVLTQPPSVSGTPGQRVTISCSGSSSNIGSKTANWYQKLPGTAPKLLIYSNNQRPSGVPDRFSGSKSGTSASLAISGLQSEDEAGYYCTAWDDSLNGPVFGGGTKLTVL
B11: KD1-2B1 (antibody, V domains shown)
VH: EVQLVESGGGLVQPGGSLRLSCAASGFTFSSYWMHWVRQAPGKGLVWVSRINNDGSSTGYADSVEGRFTISRDNAKNTLYLQINSLRAEDTAVYYCARQDGHYYYSMDVWGQGTTVTV
VL: QSALTQPRSVSGSPGQSVTISCTGTSSDVGGYNYVSWYQQHPGKAPKLMIYDVSERPSGVPARFSGSKSGNTASLTISGLQAEDEADYYCCSYAGNFRWVFGGGTKLTVL
B12: KD1-1H8 (antibody, V domains shown)
VH: EVQLVESGGGSVQPGGSLRLSCAASGFTFSNYWMHWVRQAPGKGLVWVSRLNIDGSNTFYADSVKGRFTISRDNAKNTLYLQMNSLRAEDTAVYYCVRGGSDSGDSVPFDLWGRGTLVTVS
VL: EIVMTQSPATLSVSPGERATLSCRASQSVSSNLAWYQQNPGQAPRLLIYGASTRATGIPARFSGSGSGTEFTLTISSLQSEDFAVYYCQHYNNWPFTFGQGTKVEIK
B13: KD9-2A4 (antibody, V domains shown)
VH: LVESGGGLVQPGGSLRLSCAASGFTFSSYAMHWVRQAPGKGLEFASAISSDGGTTYYANSVKGRFTISRDNSKNTLYLQMGSLRDEDMAVYYCARDDLSTSWDLDYWGQGTLVTV
VL: QSALTQPASVSGSPGQSITISCTGTSSDVGGYNYVSWYQQHPGKAPKLMIYDVSNRPSGVSNRFSGSKSGNTASLTISGLQAEDEADYYCSSYTISSTNVFGTGTKVTVL
B14: KD9-2H6 (antibody, V domains shown)
VH: EVQLVESGGGLVKPGESLRLSCVGSGFTLTNAWMIWVRQTSGKGLEWVGRIKSKIDGGAIDYGAPVKGRFTISRDDTKNTVYLQMNSLQTDDTGVYFCTTDRYSTGYYGMDDYWGQGTLVTV
VL: SYELTQPPSVSVSPGQTATITCSGDKLGDKYSFWYQQKPGQSPVVVIYQDSKRPSGIPERFSGSNSGNTATLTISGTQAMDEADYYCQVWDTDSAVFGTGTRVTV

Columns and labels:
KDpeptide3 [1] = biological target: T1, KDpeptide3; experiment: ELISA on coated synthetic peptide
T1 construct: Synthetic peptide (Anaspec) coated on ELISA plates at 800 ng per well; also the base peptide of substitution scans; also called Kdpep3; KD3
T1 peptide: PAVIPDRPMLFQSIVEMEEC

KDpeptide2 [2] = biological target: T2, KDpeptide2; experiment: ELISA on coated synthetic peptides, direct comparison
T2 construct: Synthetic peptide (Anaspec) coated on ELISA plates at 800 ng per well
T2 peptide: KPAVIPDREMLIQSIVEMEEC

KDpeptide3 [3] = biological target: T1, KDpeptide3; experiment: ELISA on coated synthetic peptide
KDpeptide2 [4] = biological target: T2, KDpeptide2; experiment: ELISA on coated synthetic peptide

Binder | binding result (KDpeptide3 [1]) | binding result (KDpeptide2 [2]) | binding result (KDpeptide3 [3]) | binding result (KDpeptide2 [4])
B1 | binds | binds |  | 
B2 | binds |  |  | 
B3 | binds | binds |  | 
B4 | binds | binds |  | 
B5 | binds | binds |  | 
B6 | binds | binds |  | 
B7 | binds |  |  | 
B8 | binds | binds |  | 
B9 | binds |  |  | 
B10 | binds |  |  | 
B11 | binds | binds |  | 
B12 | binds | binds |  | 
B13 |  |  | no binding | no binding
B14 |  |  | no binding | no binding
